Measured values taken from the RNAGym collection of RNA variant scans (doi:10.7554/elife.80360).

B1: Hammerhead Ribozyme (parent)
chain: ACCGGAUGUGCUUUCCGGUCUGAUGAGUCCGUGAGGACGAAACAG

Variants of: B1
Assay: self-cleavage, relative activity (ratio to wild type); higher = more cleavage; co-transcriptional

Variant | self-cleavage
A6G G35U | 0.465
A6G G35A | 0.302
A6G G35C | 0.684
A6C C16G | 0.372
A6C C16A | 0.643
A6C C16U | 0.689
A6U C29U | 0.451
A6U C29G | 0.468
A6U C29A | 0.475
A6U G45U | 0.468
A6U G45C | 0.39
A6U G45A | 0.536
A6G U21C | 0.54
A6G U21G | 0.472
A6G U21A | 0.393
A6U A23U | 0.311
A6U A23G | 0.249
A6U A23C | 0.368
A6C G8C | 0.916
A6C G8U | 0.633
A6C G8A | 0.783

Variant | self-cleavage
A6U U19G | 0.395
A6U U19C | 0.47
A6U U19A | 0.337
A6C G31C | 0.573
A6C G31A | 0.778
A6C G31U | 0.884
A6U G8C | 0.769
A6U G8U | 0.489
A6U G8A | 0.807
A6G A34G | 0.6
A6G A34U | 0.82
A6G A34C | 0.604
A6U C16U | 0.655
A6U C16G | 0.459
A6U C16A | 0.471
A6G U7A | 1.09
A6G U7G | 1.35
A6G U7C | 1.29
A6U C38A | 0.511
A6U C38G | 0.458
A6U C38U | 0.627

Variant | self-cleavage
A6G U32C | 0.931
A6G U32A | 0.968
A6G U32G | 0.431
A6G | 0.806
A6U | 0.696
A6G U13G | 0.778
A6G U13A | 0.842
A6G U13C | 0.722
A6G G45A | 0.556
A6G G45C | 0.433
A6G G45U | 0.597
A6U G25C | 0.259
A6U G25U | 0.355
A6U G25A | 0.308
A6G G39A | 0.31
A6G G39U | 0.248
A6G G39C | 0.297
A6C G35A | 0.568
A6C G35C | 0.391
A6C G35U | 0.744
A6U U14C | 1.07

Variant | self-cleavage
A6U U14G | 0.624
A6U U14A | 1.06
A6C U14G | 0.508
A6C U14C | 0.495
A6C U14A | 0.536
A6U C43U | 0.368
A6U C43G | 0.342
A6U C43A | 0.326
A6C U32A | 0.901
A6C U32G | 0.477
A6C U32C | 0.838
A6C G10U | 1.01
A6C G10A | 0.68
A6C G10C | 0.515
A6U C20A | 0.373
A6U C20G | 0.378
A6U C20U | 0.454
A6U U21G | 0.449
A6U U21C | 0.616
A6U U21A | 0.517
